{"source": "paper PMC5659210", "about": "“Extending the biocatalytic scope of regiocomplementary flavin-dependent halogenase enzymes” (Chemical Science, 2015)", "assay_in_all_cases": "Michaelis-Menten chlorination assay, HPLC, Fre-coupled", "format_in_all_cases": "biochemical, Pseudomonas fluorescens", "settings_in_all_cases": "Fre in excess, 30 °C", "key": {"[1]": {"substrate": "NC(=O)c1ccccc1N", "from_the_text": "(§1) Michaelis-Menten chlorination assay, HPLC, Fre-coupled on PrnA"}, "[2]": {"substrate": "N[C@@H](Cc1c[nH]c2ccccc12)C(=O)O", "from_the_text": "as §1"}, "[3]": {"substrate": "Nc1ccccc1C(=O)C[C@H](N)C(=O)O", "from_the_text": "as §1"}, "[4]": {"substrate": "Nc1ccccc1C(=O)O", "from_the_text": "as §1"}}}
{"protein": "PrnA (Pseudomonas fluorescens) (protein, full-length, pET28a (NdeI/NotI), expressed in E. coli Arctic Express, HisTrap purified) MNKPIKNIVIVGGGTAGWMAASYLVRALQQQANITLIESAAIPRIGVGEATIPSLQKVFFDFLGIPEREWMPQVNGAFKAAIKFVNWRKSPDPSRDDHFYHLFGNVPNCDGVPLTHYWLRKREQGFQQPMEYACYPQPGALDGKLAPCLSDGTRQMSHAWHFDAHLVADFLKRWAVERGVNRVVDEVVDVRLNNRGYISNLLTKEGRTLEADLFIDCSGMRGLLINQALKEPFIDMSDYLLCDSAVASAVPNDDARDGVEPYTSSIAMNSGWTWKIPMLGRFGSGYVFSSHFTSRDQATADFLKLWGLSDNQPLNQIKFRVGRNKRAWVNNCVSIGLSSCFLEPLESTGIYFIYAALYQLVKHFPDTSFDPRLSDAFNAEIVHMFDDCRDFVQAHYFTTSRDDTPFWLANRHDLRLSDAIKEKVQRYKAGLPLTTTSFDDSTYYETFDYEFKNFWLNGNYYCIFAGLGMLPDRSLPLLQHRPESIEKAEAMFASIRREAERLRTSLPTNYDYLRSLRDGDAGLSRGQRGPKLAAQESL", "values": [{"measurement": "Km", "setting": "[1]", "value": "3267 ± 491", "unit": "µM"}, {"measurement": "kcat", "setting": "[1]", "value": "0.035 ± 0.00167", "unit": "s⁻¹"}, {"measurement": "kcat/Km", "setting": "[1]", "value": "11.7 ± 1.67", "unit": "M⁻¹ s⁻¹"}, {"measurement": "Km", "setting": "[2]", "value": "0.7 ± 0.1", "unit": "µM"}, {"measurement": "kcat", "setting": "[2]", "value": "0.0183 ± 0.000833", "unit": "s⁻¹"}, {"measurement": "kcat/Km", "setting": "[2]", "value": "28300 ± 3330", "unit": "M⁻¹ s⁻¹"}, {"measurement": "Km", "setting": "[3]", "value": "19.0 ± 2.2", "unit": "µM"}, {"measurement": "kcat", "setting": "[3]", "value": "0.0617 ± 0.00167", "unit": "s⁻¹"}, {"measurement": "kcat/Km", "setting": "[3]", "value": "3330 ± 167", "unit": "M⁻¹ s⁻¹"}, {"measurement": "Km", "setting": "[4]", "value": "3161 ± 986", "unit": "µM"}, {"measurement": "kcat", "setting": "[4]", "value": "0.0085 ± 0.00117", "unit": "s⁻¹"}, {"measurement": "kcat/Km", "setting": "[4]", "value": "2.67 ± 0.833", "unit": "M⁻¹ s⁻¹"}]}
